# Measurements from patent publication US20240117018A1.
# How the values were obtained:
# Experiment in all cases: cell-based or functional assay
# [1] = molecular target: HIV-1 Env of pseudovirus 191955_A11 (HIV-1)
# [2] = molecular target: HIV-1 Env of pseudovirus 3016.v5.c45 (HIV-1)
# [3] = molecular target: HIV-1 Env of pseudovirus 3103.v3.c10 (HIV-1)
# [4] = molecular target: HIV-1 Env of pseudovirus 620345.c01 (HIV-1)
# [5] = molecular target: HIV-1 Env of pseudovirus 62357_14_D3_4589 (HIV-1)
# [6] = molecular target: HIV-1 Env of pseudovirus 6952.v1.c20 (HIV-1)
# [7] = molecular target: HIV-1 Env of pseudovirus AC10.0.29 (HIV-1)
# [8] = molecular target: HIV-1 Env of pseudovirus BJOX028000.10.3 (HIV-1)
# [9] = molecular target: HIV-1 Env of pseudovirus CAP210.2.00.E8 (HIV-1)
# [10] = molecular target: HIV-1 Env of pseudovirus CNE20 (HIV-1)
# [11] = molecular target: HIV-1 Env of pseudovirus Ce1086_B2 (HIV-1)
# [12] = molecular target: HIV-1 Env of pseudovirus Ce1172_H1 (HIV-1)
# [13] = molecular target: HIV-1 Env of pseudovirus Du172.17 (HIV-1)
# [14] = molecular target: HIV-1 Env of pseudovirus Du422.1 (HIV-1)
# [15] = molecular target: HIV-1 Env of pseudovirus PVO.4 (HIV-1)
# [16] = molecular target: HIV-1 Env of pseudovirus Q259.d2.17 (HIV-1)
# [17] = molecular target: HIV-1 Env of pseudovirus R1166.c01 (HIV-1)
# [18] = molecular target: HIV-1 Env of pseudovirus T250-4 (HIV-1)
# [19] = molecular target: HIV-1 Env of pseudovirus X1254_c3 (HIV-1)
# [20] = molecular target: HIV-1 Env of pseudovirus X2088_c9 (HIV-1)
# [21] = molecular target: MuLV envelope (negative control pseudovirus) (MuLV)
substance,measurement,setting,value
N49P7-54TY (antibody),IC50 (Titer in TZM.bl cells),[1],3.04 µg/mL
same,IC80 (Titer in TZM.bl cells),[1],> 25 µg/mL
same,MPI,[1],72
same,IC50 (Titer in TZM.bl cells),[2],0.206 µg/mL
same,IC80 (Titer in TZM.bl cells),[2],1.91 µg/mL
same,MPI,[2],92
same,IC50 (Titer in TZM.bl cells),[3],0.151 µg/mL
same,IC80 (Titer in TZM.bl cells),[3],0.55 µg/mL
same,MPI,[3],100
same,IC50 (Titer in TZM.bl cells),[4],> 25 µg/mL
same,IC80 (Titer in TZM.bl cells),[4],> 25 µg/mL
same,MPI,[4],0
same,IC50 (Titer in TZM.bl cells),[5],0.055 µg/mL
same,IC80 (Titer in TZM.bl cells),[5],0.192 µg/mL
same,MPI,[5],100
same,IC50 (Titer in TZM.bl cells),[6],> 25 µg/mL
same,IC80 (Titer in TZM.bl cells),[6],> 25 µg/mL
same,MPI,[6],20
same,IC50 (Titer in TZM.bl cells),[7],> 25 µg/mL
same,IC80 (Titer in TZM.bl cells),[7],> 25 µg/mL
same,MPI,[7],40
same,IC50 (Titer in TZM.bl cells),[8],0.009 µg/mL
same,IC80 (Titer in TZM.bl cells),[8],0.044 µg/mL
same,MPI,[8],100
same,IC50 (Titer in TZM.bl cells),[9],0.691 µg/mL
same,IC80 (Titer in TZM.bl cells),[9],3.33 µg/mL
same,MPI,[9],97
same,IC50 (Titer in TZM.bl cells),[10],0.046 µg/mL
same,IC80 (Titer in TZM.bl cells),[10],0.16 µg/mL
same,MPI,[10],100
same,IC50 (Titer in TZM.bl cells),[11],0.067 µg/mL
same,IC80 (Titer in TZM.bl cells),[11],0.339 µg/mL
same,MPI,[11],100
same,IC50 (Titer in TZM.bl cells),[12],> 25 µg/mL
same,IC80 (Titer in TZM.bl cells),[12],> 25 µg/mL
same,MPI,[12],23
same,IC50 (Titer in TZM.bl cells),[13],0.124 µg/mL
same,IC80 (Titer in TZM.bl cells),[13],0.529 µg/mL
same,MPI,[13],100
same,IC50 (Titer in TZM.bl cells),[14],0.402 µg/mL
same,IC80 (Titer in TZM.bl cells),[14],2.02 µg/mL
same,MPI,[14],96
same,IC50 (Titer in TZM.bl cells),[15],0.079 µg/mL
same,IC80 (Titer in TZM.bl cells),[15],0.314 µg/mL
same,MPI,[15],100
same,IC50 (Titer in TZM.bl cells),[16],0.132 µg/mL
same,IC80 (Titer in TZM.bl cells),[16],1.13 µg/mL
same,MPI,[16],95
same,IC50 (Titer in TZM.bl cells),[17],0.131 µg/mL
same,IC80 (Titer in TZM.bl cells),[17],0.47 µg/mL
same,MPI,[17],100
same,IC50 (Titer in TZM.bl cells),[18],1.02 µg/mL
same,IC80 (Titer in TZM.bl cells),[18],19.6 µg/mL
same,MPI,[18],83
same,IC50 (Titer in TZM.bl cells),[19],0.145 µg/mL
same,IC80 (Titer in TZM.bl cells),[19],0.599 µg/mL
same,MPI,[19],100
same,IC50 (Titer in TZM.bl cells),[20],0.172 µg/mL
same,IC80 (Titer in TZM.bl cells),[20],0.572 µg/mL
same,MPI,[20],100
same,IC50 (Titer in TZM.bl cells),[21],> 25 µg/mL
same,IC80 (Titer in TZM.bl cells),[21],> 25 µg/mL
same,MPI,[21],0
N49P7YTE (antibody),IC50 (Titer in TZM.bl cells),[1],39 µg/mL
same,IC80 (Titer in TZM.bl cells),[1],> 50 µg/mL
same,MPI,[1],56
same,IC50 (Titer in TZM.bl cells),[2],1.15 µg/mL
same,IC80 (Titer in TZM.bl cells),[2],9.65 µg/mL
same,MPI,[2],89
same,IC50 (Titer in TZM.bl cells),[3],0.322 µg/mL
same,IC80 (Titer in TZM.bl cells),[3],0.583 µg/mL
same,MPI,[3],100
same,IC50 (Titer in TZM.bl cells),[4],> 50 µg/mL
same,IC80 (Titer in TZM.bl cells),[4],> 50 µg/mL
same,MPI,[4],0
same,IC50 (Titer in TZM.bl cells),[5],0.039 µg/mL
same,IC80 (Titer in TZM.bl cells),[5],0.173 µg/mL
same,MPI,[5],100
same,IC50 (Titer in TZM.bl cells),[6],> 50 µg/mL
same,IC80 (Titer in TZM.bl cells),[6],> 50 µg/mL
same,MPI,[6],13
same,IC50 (Titer in TZM.bl cells),[7],> 50 µg/mL
same,IC80 (Titer in TZM.bl cells),[7],> 50 µg/mL
same,MPI,[7],28
same,IC50 (Titer in TZM.bl cells),[8],0.018 µg/mL
same,IC80 (Titer in TZM.bl cells),[8],0.155 µg/mL
same,MPI,[8],100
same,IC50 (Titer in TZM.bl cells),[9],3.11 µg/mL
same,IC80 (Titer in TZM.bl cells),[9],13.9 µg/mL
same,MPI,[9],99
same,IC50 (Titer in TZM.bl cells),[10],0.11 µg/mL
same,IC80 (Titer in TZM.bl cells),[10],0.317 µg/mL
same,MPI,[10],99
same,IC50 (Titer in TZM.bl cells),[11],0.113 µg/mL
same,IC80 (Titer in TZM.bl cells),[11],0.53 µg/mL
same,MPI,[11],99
same,IC50 (Titer in TZM.bl cells),[12],> 50 µg/mL
same,IC80 (Titer in TZM.bl cells),[12],> 50 µg/mL
same,MPI,[12],12
same,IC50 (Titer in TZM.bl cells),[13],0.283 µg/mL
same,IC80 (Titer in TZM.bl cells),[13],0.953 µg/mL
same,MPI,[13],100
same,IC50 (Titer in TZM.bl cells),[14],13.2 µg/mL
same,IC80 (Titer in TZM.bl cells),[14],> 50 µg/mL
same,MPI,[14],76
same,IC50 (Titer in TZM.bl cells),[15],0.088 µg/mL
same,IC80 (Titer in TZM.bl cells),[15],0.394 µg/mL
same,MPI,[15],100
same,IC50 (Titer in TZM.bl cells),[16],5.34 µg/mL
same,IC80 (Titer in TZM.bl cells),[16],44.1 µg/mL
same,MPI,[16],82
same,IC50 (Titer in TZM.bl cells),[17],0.232 µg/mL
same,IC80 (Titer in TZM.bl cells),[17],0.782 µg/mL
same,MPI,[17],100
same,IC50 (Titer in TZM.bl cells),[18],> 50 µg/mL
same,IC80 (Titer in TZM.bl cells),[18],> 50 µg/mL
same,MPI,[18],43
same,IC50 (Titer in TZM.bl cells),[19],26.2 µg/mL
same,IC80 (Titer in TZM.bl cells),[19],> 50 µg/mL
same,MPI,[19],59
same,IC50 (Titer in TZM.bl cells),[20],0.329 µg/mL
same,IC80 (Titer in TZM.bl cells),[20],1.06 µg/mL
same,MPI,[20],100
same,IC50 (Titer in TZM.bl cells),[21],> 50 µg/mL
same,IC80 (Titer in TZM.bl cells),[21],> 50 µg/mL
same,MPI,[21],4
